According to paper PMC3621757, “Structural Plasticity in Human Heterochromatin Protein 1β” (PLoS ONE, 2013):

Biological target: the molecule itself
Experiment: small angle X-ray scattering (SAXS); hHP1β (2–185) at 1.0, 2.0 and 5.0 mg/mL, 283 K; 20 mM sodium phosphate pH 6.5, 50 mM NaCl, 2 mM DTT; MW from forward scattering against bovine serum albumin

B1: full-length human Heterochromatin Protein 1β, hHP1β (2–185) (natural protein)
chain: not shown
notes: The His-tag is TEV-protease-cleavable; NMR samples were 15N-perdeuterated; also called full-length hHP1β; source: pET16b expression vector (Novagen); additional size-exclusion chromatography on Superdex200 for SAXS and DLS samples
B1 was tested, and the “stoichiometry N” value was 2.
